Assay results reported in the supplement of paper PMC7125110.
± gives the standard error. This sample holds only a part of the variants without activity.

B1: glmS ribozyme (parent)
chain: AUAAAAGCGCCAGAACUACAGAAAUGUAGUUGACGAGGAGGAGGUUUAUCGAAUUUUCGGCGGAUGCCUCCAAA

Assays:
Settings in all cases: with glucosamine-6-phosphate
glucosamine-6-phosphate [1] = variants of: B1; assay: self-cleavage kobs at 40 uM GlcN6P; higher = faster cleavage; RNA array
Method in brief: (§1)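 Glucosamine-6-phosphate (40 μM to 10 mM) in HEPES/KCl/Mg(OAc)2 buffer was flowed over sequenced MiSeq chips, and tiles were imaged over ~14 h. Barcoded ribozyme variants there had been transcribed in situ by E. coli RNA polymerase and were tracked through a hybridised Cy3 probe at 37 °C. One- or two-exponential decay fits to per-tile medians, normalised to baseline and to non-cleaving reference variants, gave kobs. kcat and KM came from weighted Michaelis–Menten fits across concentrations.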

glucosamine-6-phosphate [2] = variants of: B1; assay: self-cleavage kobs at 10000 uM GlcN6P; higher = faster cleavage; RNA array
Method in brief: as §1

glucosamine-6-phosphate [3] = variants of: B1; assay: self-cleavage kobs at 160 uM GlcN6P; higher = faster cleavage; RNA array
Method in brief: as §1

glucosamine-6-phosphate [4] = variants of: B1; assay: self-cleavage kobs at 640 uM GlcN6P; higher = faster cleavage; RNA array
Method in brief: as §1

glucosamine-6-phosphate [5] = variants of: B1; assay: self-cleavage kobs at 2500 uM GlcN6P; higher = faster cleavage; RNA array
Method in brief: as §1

Row | Variant | self-cleavage kobs at 40 uM GlcN6P (glucosamine-6-phosphate [1]) | self-cleavage kobs at 10000 uM GlcN6P (glucosamine-6-phosphate [2]) | self-cleavage kobs at 160 uM GlcN6P (glucosamine-6-phosphate [3]) | self-cleavage kobs at 640 uM GlcN6P (glucosamine-6-phosphate [4]) | self-cleavage kobs at 2500 uM GlcN6P (glucosamine-6-phosphate [5])
1 | U56G G62U C68G | < 1e-05 s⁻¹ | < 1e-05 s⁻¹ |  |  | 
2 | U55C C68A | < 1e-05 s⁻¹ |  | < 1e-05 s⁻¹ | < 1e-05 s⁻¹ | < 1e-05 s⁻¹
3 | U57G G60C | < 1e-05 s⁻¹ |  | < 1e-05 s⁻¹ | < 1e-05 s⁻¹ | < 1e-05 s⁻¹
4 | U56A G62U | < 1e-05 s⁻¹ |  |  | < 1e-05 s⁻¹ | 
5 | U55G C67G | 0.000127 ± 1.4e-05 s⁻¹ | 0.00597 ± 0.00099 s⁻¹ | 0.000234 ± 5.1e-05 s⁻¹ | 0.000819 ± 0.00012 s⁻¹ | 0.000472 ± 0.0001 s⁻¹
6 | A53C U56C | < 1e-05 s⁻¹ |  |  |  | 0.000121 ± 2e-05 s⁻¹
7 | A52U G63C | < 1e-05 s⁻¹ | < 1e-05 s⁻¹ | < 1e-05 s⁻¹ | < 1e-05 s⁻¹ | 
8 | U54A C67G | 8.43e-05 ± 1.3e-05 s⁻¹ | 0.00147 ± 0.00055 s⁻¹ | 0.000213 ± 4.1e-05 s⁻¹ | 0.000297 ± 5.3e-05 s⁻¹ | 0.000126 ± 2.2e-05 s⁻¹
9 | U54A C67U | 0.000285 ± 9.7e-05 s⁻¹ | 0.00584 ± 0.0013 s⁻¹ | 0.000312 ± 9.1e-05 s⁻¹ | 0.00116 ± 0.00032 s⁻¹ | 0.00976 ± 0.0027 s⁻¹
10 | A53G U69A | 0.000147 ± 4e-05 s⁻¹ | 8.92e-05 ± 2.1e-05 s⁻¹ |  | 0.000407 ± 0.0001 s⁻¹ | 0.000305 ± 8.4e-05 s⁻¹
11 | G59U G63U C67A | < 1e-05 s⁻¹ | < 1e-05 s⁻¹ |  |  | 
12 | A53U C70U | 0.000741 ± 6.7e-05 s⁻¹ | 0.0335 ± 0.0084 s⁻¹ | 0.00102 ± 0.00023 s⁻¹ | 0.00682 ± 0.0013 s⁻¹ | 0.00471 ± 0.0013 s⁻¹
13 | G60A G62U | < 1e-05 s⁻¹ |  | < 1e-05 s⁻¹ | < 1e-05 s⁻¹ | < 1e-05 s⁻¹
14 | G60C C67A C71U | < 1e-05 s⁻¹ |  |  |  | 
15 | U55C G60U C68U | < 1e-05 s⁻¹ |  |  |  | < 1e-05 s⁻¹
16 | U56G C67A | 6.65e-05 ± 1.8e-05 s⁻¹ | 0.00273 ± 0.00081 s⁻¹ | 0.000207 ± 5.3e-05 s⁻¹ | 0.00102 ± 0.00014 s⁻¹ | 0.000842 ± 0.00014 s⁻¹
17 | C58A G60A | < 1e-05 s⁻¹ | < 1e-05 s⁻¹ | < 1e-05 s⁻¹ |  | 
18 | G60A C67U | < 1e-05 s⁻¹ |  | < 1e-05 s⁻¹ |  | 
19 | C58A G62C | < 1e-05 s⁻¹ |  | < 1e-05 s⁻¹ | < 1e-05 s⁻¹ | < 1e-05 s⁻¹
20 | U57A G59U | < 1e-05 s⁻¹ | < 1e-05 s⁻¹ | < 1e-05 s⁻¹ | < 1e-05 s⁻¹ | 
21 | G59A C68U U69G | < 1e-05 s⁻¹ |  |  |  | 

Row | Variant | self-cleavage kobs at 40 uM GlcN6P (glucosamine-6-phosphate [1]) | self-cleavage kobs at 10000 uM GlcN6P (glucosamine-6-phosphate [2]) | self-cleavage kobs at 160 uM GlcN6P (glucosamine-6-phosphate [3]) | self-cleavage kobs at 640 uM GlcN6P (glucosamine-6-phosphate [4]) | self-cleavage kobs at 2500 uM GlcN6P (glucosamine-6-phosphate [5])
22 | A53G U54C | 0.000508 ± 7.8e-05 s⁻¹ | 0.0169 ± 0.0033 s⁻¹ | 0.000991 ± 0.00024 s⁻¹ |  | 
23 | A53G C68U | 0.000296 ± 4.8e-05 s⁻¹ | 0.00554 ± 0.0012 s⁻¹ | 0.00034 ± 7.7e-05 s⁻¹ | 0.00399 ± 0.00064 s⁻¹ | 0.00239 ± 0.00052 s⁻¹
24 | A53U U56G | 0.000405 ± 6.8e-05 s⁻¹ | 0.0151 ± 0.004 s⁻¹ | 0.000558 ± 0.00015 s⁻¹ | 0.00241 ± 0.00042 s⁻¹ | 0.00421 ± 0.0011 s⁻¹
25 | A53U U56C | 5.21e-05 ± 8e-06 s⁻¹ | 0.0038 ± 0.00042 s⁻¹ | 0.000101 ± 1.5e-05 s⁻¹ | 0.000782 ± 9.1e-05 s⁻¹ | 0.00118 ± 0.00021 s⁻¹
26 | U55A G62A | < 1e-05 s⁻¹ |  |  |  | < 1e-05 s⁻¹
27 | U54G G62U | < 1e-05 s⁻¹ | < 1e-05 s⁻¹ | < 1e-05 s⁻¹ | < 1e-05 s⁻¹ | < 1e-05 s⁻¹
28 | U56C C61A | < 1e-05 s⁻¹ |  | < 1e-05 s⁻¹ | < 1e-05 s⁻¹ | 
29 | U56C C61U | < 1e-05 s⁻¹ | < 1e-05 s⁻¹ | < 1e-05 s⁻¹ | < 1e-05 s⁻¹ | < 1e-05 s⁻¹
30 | U55G C58A G60C C61G C67A | < 1e-05 s⁻¹ |  |  |  | 
31 | A53U G66A C67U | 7.59e-05 ± 1.6e-05 s⁻¹ | 0.00355 ± 0.00067 s⁻¹ |  |  | 
32 | G60A C71U | < 1e-05 s⁻¹ |  |  | < 1e-05 s⁻¹ | 
33 | C58U G60U | < 1e-05 s⁻¹ | < 1e-05 s⁻¹ |  | < 1e-05 s⁻¹ | < 1e-05 s⁻¹
34 | U55A C71U | 0.00109 ± 0.00019 s⁻¹ | 0.0549 ± 0.013 s⁻¹ | 0.00212 ± 0.00076 s⁻¹ | 0.0121 ± 0.0034 s⁻¹ | 0.00755 ± 0.0025 s⁻¹
35 | G60C C67A | < 1e-05 s⁻¹ |  |  |  | < 1e-05 s⁻¹
36 | G60C C67G | < 1e-05 s⁻¹ | < 1e-05 s⁻¹ | < 1e-05 s⁻¹ | < 1e-05 s⁻¹ | 
37 | A53G G60C | < 1e-05 s⁻¹ | < 1e-05 s⁻¹ |  |  | 
38 | U56C G59C C68G | < 1e-05 s⁻¹ | < 1e-05 s⁻¹ |  |  | 
39 | U54G U55G | 0.00108 ± 0.00018 s⁻¹ |  | 0.00148 ± 0.00028 s⁻¹ | 0.00673 ± 0.0015 s⁻¹ | 0.0105 ± 0.0029 s⁻¹
40 | U57G U65A | < 1e-05 s⁻¹ |  |  | < 1e-05 s⁻¹ | 
41 | U57G U65G | < 1e-05 s⁻¹ |  | < 1e-05 s⁻¹ |  | 
42 | U56C G62U | < 1e-05 s⁻¹ | < 1e-05 s⁻¹ |  |  | 
